Here are results for 101 sequences from the supplement of paper PMC10126150.

± gives the standard deviation of the averaged measurements.

The data set relates to ATP. Nature of the data set: switch fluorescence ratio, 500 uM ATP over buffer (Cy3 cluster intensity, sum of 5 cycles each) (fold (ratio)); higher = stronger signal-on switching upon ATP binding; sequences stand for … in TCGTCGGCAGCGTCAGATGTGTATAAGAGACAGTTTTTTTTTTTTTTTTTTTTTTTTT…TC. The settings on record: aptamer strand: ATP DNA aptamer (quencher-CACCTGGGGGAGTATTGCGGAGGAAGG + anchor), 100 nM annealed; ATP concentration: 500 uM. In outline: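 Cy3-labelled switching-strand clusters on a modified Illumina MiSeq flow-cell were annealed to 100 nM quencher-labelled ATP aptamer and imaged first in selection buffer, then after 15 min with 500 uM ATP at 22 °C. NaOH stripping and re-annealing separated each of five buffer/ATP cycles, and clusters outside 100-1000 RFU were excluded. The fluorescence ratio sums target-cycle Cy3 intensity over buffer-cycle Cy3 intensity per cluster and averages it per switch-domain sequence.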
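Also: ATP exposure 15 min at 22 °C before imaging.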

As to TTGTGGTTCC, the switch fluorescence ratio came out at 1.08 ± 0.14. Regarding TGGGTGATAT, the switch fluorescence ratio is 0.989 ± 0.018.

With AACTGTTTCG, the switch fluorescence ratio amounted to 0.9707 ± 0.0013. For the sequence TGTCACAGTT, the switch fluorescence ratio was determined as 1.01 ± 0.013. With GATTGTGGAG the figure was 1.01 ± 0.018; with TTAGGCAGAT, 1.24 ± 0.36; with TGGTCATTGC, 1.064 ± 0.0086. Consider CACAGTGAGT, for which the switch fluorescence ratio worked out at 0.997 ± 0.021. In the case of ACCGCTTGTA, the switch fluorescence ratio was 1.05 ± 0.052. On to TCCGACGTAG, for which the switch fluorescence ratio worked out at 1.19 ± 0.31. GTAATTCGGG: the switch fluorescence ratio was 0.9809 ± 0.0073. On to AATGATATCG, for which the switch fluorescence ratio came to 1.03 ± 0.013. Turning to TATTGTGGGT, the switch fluorescence ratio was 0.98 ± 0.035. For the sequence AACTCCAGTA, the switch fluorescence ratio amounted to 1.008 ± 0.005. CGAGGGATTT: the switch fluorescence ratio was found to be 1.05 ± 0.013. As to TGTTAGTAAT, the switch fluorescence ratio is 1.019 ± 0.0087. For ATGTGGGAGT, the switch fluorescence ratio was 0.979 ± 0.034. On to TGGGACAGGG, for which the switch fluorescence ratio is 1.03 ± 0.088. For the sequence AATCATATTA, the switch fluorescence ratio worked out at 1.01 ± 0.049. Turning to CCTTGAAAGG, the switch fluorescence ratio was determined as 1 ± 0.011. As for GGTTGAATGT, the switch fluorescence ratio was 0.9843 ± 0.0074. With CAGGTATAGG, the switch fluorescence ratio was found to be 0.9864 ± 0.0054. As for TTGCAGGGGG, the switch fluorescence ratio came out at 0.998 ± 0.027. For the sequence CGGATTGTAG, the switch fluorescence ratio came out at 1.03 ± 0.04. On to TTGTGGCTTA, for which the switch fluorescence ratio worked out at 0.98 ± 0.036.

Regarding AGGCAGAGTA, the switch fluorescence ratio amounted to 0.992 ± 0.038.

With TGGGAAAAAC, the switch fluorescence ratio turned out to be 1.09 ± 0.1. In the case of AAACTTAAGA it was 0.996 ± 0.049; in that of CGTACCATCC, 1.6 ± 0.18; in that of TGTATAGGGT, 1.01 ± 0.048. Consider GTGATGGGGA, for which the switch fluorescence ratio came to 0.9895 ± 0.0095. In the case of AGAATCGGCG it was 1.03 ± 0.0081; in that of GTGGGAGGGA, 1.02 ± 0.043. Take CTATTCTAGG: the switch fluorescence ratio was 1.019 ± 0.0083. For GCGTACTGTG, the switch fluorescence ratio was 0.994 ± 0.022. On to TTTTCTTAGG, for which the switch fluorescence ratio came to 1.08 ± 0.14. With TGATGAATTG the figure was 1.04 ± 0.002; with GTGGGGGCTG, 0.9878 ± 0.0047. In the case of ATTGGTGACG it was 1.02 ± 0.047. In the case of CTGTGAGTTA it was 0.97 ± 0.038; in that of GATAGTAAGG, 0.9795 ± 0.0075.

For the sequence AGTGTAAGCC, the switch fluorescence ratio amounted to 0.9622 ± 0.0067. On to TATTGGGGGC, for which the switch fluorescence ratio was 1 ± 0.018. Regarding CGTTCATTGT, the switch fluorescence ratio is 0.9942 ± 0.0098. On to AGATTAGGCA, for which the switch fluorescence ratio worked out at 0.992 ± 0.013. As for CCTAGGGTTA, the switch fluorescence ratio turned out to be 1.01 ± 0.074.

For AACGAATAAA, the switch fluorescence ratio is 0.994 ± 0.025. As to GCCTGGGTTC, the switch fluorescence ratio came to 0.985 ± 0.02. Consider GGTCGGGCTG, for which the switch fluorescence ratio was determined as 0.9942 ± 0.0047.

With GGGGAGAAGA, the switch fluorescence ratio was determined as 0.9662 ± 0.005. In the case of CGTATAGAGA it was 0.998 ± 0.039; in that of TCATAACTTT, 0.984 ± 0.017; in that of ATTGAGCGTG, 1.01 ± 0.015.

Consider AAGCACGGTT, for which the switch fluorescence ratio came to 1.08 ± 0.093. Regarding ACGGTTCTTT, the switch fluorescence ratio turned out to be 1.01 ± 0.03.

Turning to CCTGAGGGTT, the switch fluorescence ratio was determined as 0.985 ± 0.0069. For TTTCCGTTTG, the switch fluorescence ratio worked out at 1.16 ± 0.32. Consider GAACTGATGT, for which the switch fluorescence ratio came to 1 ± 0.018. In the case of TACGAGGTTT, the switch fluorescence ratio amounted to 0.978 ± 0.03. Consider GGGCGTTTTT, for which the switch fluorescence ratio worked out at 0.992 ± 0.017. Regarding TTAAGGGCTC, the switch fluorescence ratio was 1 ± 0.013. As to ATCGGGGTCA, the switch fluorescence ratio is 1.01 ± 0.027. With AGTTTGAGGT the figure was 0.995 ± 0.023. In the case of GTTGTTTTAG, the switch fluorescence ratio was determined as 0.992 ± 0.019. With TTAGGCCCCG the figure was 1.01 ± 0.04; with TATTGTAATT, 1.01 ± 0.014.

For AATAAGTTGT, the switch fluorescence ratio amounted to 0.999 ± 0.035. With CTACCGGATT the figure was 1.07 ± 0.012.

On to CGAGGAAATG, for which the switch fluorescence ratio turned out to be 1.06 ± 0.011.

As for TTTGTAGTAT, the switch fluorescence ratio was 1.03 ± 0.1.

Take GCATTAGGTA: the switch fluorescence ratio came out at 0.984 ± 0.024. With GGCTGCAATG the figure was 1.39 ± 0.069. CTGTTAGTTG: the switch fluorescence ratio came to 0.993 ± 0.019. With AAAGGTGTTG, the switch fluorescence ratio amounted to 1.16 ± 0.23.

Consider AATAGTTGGA, for which the switch fluorescence ratio is 0.9846 ± 0.0064.

TCCGGGAAAT: the switch fluorescence ratio worked out at 2.88 ± 0.66.

For AAGTGGCCGT, the switch fluorescence ratio came to 1.01 ± 0.041. With TGTGGGATTG, the switch fluorescence ratio was determined as 0.993 ± 0.015. With TTCTTGTTTT the figure was 1.01 ± 0.016. TTAGGTTGGT: the switch fluorescence ratio is 1 ± 0.065.

As for ATAAAGATAG, the switch fluorescence ratio worked out at 1.0006 ± 7.5e-05. For the sequence ACTTGTAGGC, the switch fluorescence ratio came out at 1.01 ± 0.05. For ATATCGACGT, the switch fluorescence ratio is 1 ± 0.013. Consider AAGAAAGGTA, for which the switch fluorescence ratio was found to be 1.01 ± 0.025. Take AAGGTAGCGC: the switch fluorescence ratio is 0.974 ± 0.059.

With AGGGAAAGGT, the switch fluorescence ratio worked out at 1.06 ± 0.05. In the case of GACTAACGCA, the switch fluorescence ratio was found to be 1.25 ± 0.057. Regarding TCGTTTTTTG, the switch fluorescence ratio is 0.984 ± 0.016. In the case of GATGAGTTG, the switch fluorescence ratio was 1.01 ± 0.012.

For the sequence CGGGGGGCCT, the switch fluorescence ratio came out at 1.01 ± 0.028. For ATGTAAAATG, the switch fluorescence ratio came out at 1.04 ± 0.066. With TCCAAAGGGC the figure was 1.07 ± 0.024; with TTTACAAATT, 1 ± 0.02; with AGGGTTGGAA, 0.967 ± 0.011. In the case of AATTAGCCAT it was 0.987 ± 0.011; in that of AGGGGGGTGG, 0.994 ± 0.052; in that of TTTTTCGTAA, 1.04 ± 0.061. Consider GAAGAGGGAT, for which the switch fluorescence ratio was found to be 0.981 ± 0.049. With TTATAATACT the figure was 1.04 ± 0.019; with TGGGGGTTAT, 0.993 ± 0.042. As for TCGAGGGGAA, the switch fluorescence ratio was 1.13 ± 0.15.
